Data from patent US20240336701A1 (Novartis, published 2024).
Numbering of substitutions follows the chain as printed.

T1: human ENTPD2, full length, on cells (human, UniProt Q9Y5L3 1-495)
T1 sequence: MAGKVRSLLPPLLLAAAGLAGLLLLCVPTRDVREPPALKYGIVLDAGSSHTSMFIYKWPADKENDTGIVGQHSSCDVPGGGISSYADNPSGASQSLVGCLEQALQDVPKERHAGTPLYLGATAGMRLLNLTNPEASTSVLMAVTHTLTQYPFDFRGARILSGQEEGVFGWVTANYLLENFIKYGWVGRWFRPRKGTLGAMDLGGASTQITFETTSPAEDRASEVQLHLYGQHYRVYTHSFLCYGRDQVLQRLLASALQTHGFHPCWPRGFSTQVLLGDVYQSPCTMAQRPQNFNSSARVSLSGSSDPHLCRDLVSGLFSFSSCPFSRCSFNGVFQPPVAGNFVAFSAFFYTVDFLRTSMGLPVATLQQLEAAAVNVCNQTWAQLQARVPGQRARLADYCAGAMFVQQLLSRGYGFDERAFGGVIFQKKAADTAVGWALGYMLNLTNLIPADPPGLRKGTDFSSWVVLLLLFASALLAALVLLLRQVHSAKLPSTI

T2: cynomolgus ENTPD2, full length, on cells (cynomolgus macaque, UniProt Q9Y5L3 1-495 (human entry))
T2 chain: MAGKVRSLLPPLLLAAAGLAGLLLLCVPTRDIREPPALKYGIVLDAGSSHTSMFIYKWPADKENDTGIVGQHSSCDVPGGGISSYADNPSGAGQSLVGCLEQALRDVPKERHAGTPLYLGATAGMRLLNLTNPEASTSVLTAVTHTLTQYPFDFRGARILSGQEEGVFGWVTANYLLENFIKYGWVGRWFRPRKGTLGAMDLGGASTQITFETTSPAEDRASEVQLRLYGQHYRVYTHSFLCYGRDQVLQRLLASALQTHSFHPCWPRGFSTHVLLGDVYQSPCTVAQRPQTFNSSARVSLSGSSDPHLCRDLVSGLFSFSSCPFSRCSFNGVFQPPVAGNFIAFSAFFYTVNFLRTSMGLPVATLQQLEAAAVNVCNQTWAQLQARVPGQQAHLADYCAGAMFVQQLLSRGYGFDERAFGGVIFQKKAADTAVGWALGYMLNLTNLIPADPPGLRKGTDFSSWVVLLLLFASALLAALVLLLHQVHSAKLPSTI

T3: mouse ENTPD2, full length, on cells (mouse, UniProt O55026 1-495)
T3 sequence: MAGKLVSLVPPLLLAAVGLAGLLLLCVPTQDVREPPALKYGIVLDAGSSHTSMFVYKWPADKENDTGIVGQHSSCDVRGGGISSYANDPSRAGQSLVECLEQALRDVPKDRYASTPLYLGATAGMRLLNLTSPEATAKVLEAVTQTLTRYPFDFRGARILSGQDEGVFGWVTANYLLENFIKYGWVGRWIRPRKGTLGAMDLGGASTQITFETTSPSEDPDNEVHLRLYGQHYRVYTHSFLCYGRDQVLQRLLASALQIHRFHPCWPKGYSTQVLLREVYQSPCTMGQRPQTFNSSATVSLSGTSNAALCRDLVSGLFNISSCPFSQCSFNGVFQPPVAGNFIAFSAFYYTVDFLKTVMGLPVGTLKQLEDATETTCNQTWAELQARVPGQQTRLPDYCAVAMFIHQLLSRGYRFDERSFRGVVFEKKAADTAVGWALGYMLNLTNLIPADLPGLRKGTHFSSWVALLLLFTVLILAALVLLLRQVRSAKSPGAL

B1: ANTI-HUMAN ENTPD2 MAB17 (antibody, human IgG1, kappa, V domains shown)
VH: EVQLQQFGAELVKPGASVKISCKASGYTFTDYNMDWVKQSHGKSLEWIGDINPKYDISTYNQQFKGKATLTVDKSSSTAYMELRSLTSEDTAVYYCARRGFFLYYGINYYYFDVWGAGTTVTVSS
VL: QIVLTQSPAIMSASLGEEITLTCSASSSVSYIHWYQQKSGTSPTLLIYSTSNLASGVPSRFSGSGSGTFYSLTISSVEAEDAADYYCHQWSSYPWTFGGGTKLEIKR
B2: ANTI-HUMAN ENTPD2 MAB16 (antibody, human IgG1, kappa, V domains shown)
VH: DIQLQESGPGLVKPSQSLSLTCSVTGYSITSGYYWNWIRQFPGNKLEWMGYISYDGDNNYNPSLKNRISITRDTSKNQFFLKLSSVTTEDTATYYCAGGYYRYGLSYYYVMDYWGQGTSVTVSS
VL: DTVLTQSPASLAVSLGQRATISCKASQSVDYDGNSYMNWYQQKPGQPPKLLIYAASNLESGIPARFSGSGSGTDFTLNIHPVEEEDAATYYCQQSNEDPPTFGGGTKLEIKR
B3: ANTI-mouse ENTPD2 MAB13 (antibody, mouse IgG2a, kappa, V domains shown)
VH: QVQLVQSGAELKQPGQSVKISCKASGYTFTHYGMNWVKQAPGQGLKWMGWINTDTGNPTYADDFKGRFVFSLDTSVSTAYLQISNLKNEDTATYYCVRYGTLYSGYGFFFDSWGQGTLVTVSS
VL: DIMMTQSPSSLSVSAGEKATITCKSSQSLFNSNTNKNYLNWYLQKPGQSPKLLFYYASTRHTGVPDRFIGSGSGTDFTLTITSVQDEDLADYYCQQWYSYPWTFGPGTKLEIKR
notes: also called Anti-ENTPD2 mAb13
B4: ANTI-mouse ENTPD2 MAB15 (antibody, mouse IgG2a, kappa, V domains shown)
VH: B3 VH with T30H
VL: B3 VL
B5: ANTI-mouse ENTPD2 MAB14 (antibody, mouse IgG2a, kappa, V domains shown)
VH: B3 VH with T30W
VL: B3 VL

What was measured:
[1] = molecular target: recombinant human ENTPD2 extracellular domain (residues 29-462) with C-terminal Avi-His6 tag (human, UniProt Q9Y5L3 29-462); assay: cell-based or functional assay
[2] = molecular target: T1, human ENTPD2, full length, on cells; assay: cell-based or functional assay
[3] = molecular target: T2, cynomolgus ENTPD2, full length, on cells; assay: cell-based or functional assay
[4] = molecular target: T2, cynomolgus ENTPD2, full length, on cells; assay: FACS
[5] = molecular target: T3, mouse ENTPD2, full length, on cells; assay: cell-based or functional assay
[6] = molecular target: T1, human ENTPD2, full length, on cells; assay: flow cytometry on human ENTPD2 engineered B16LM3 clone B5 cells (human ENTPD2 expressed, endogenous mouse ENTPD2 knocked out); anti-mouse IgG-AF647 secondary. The text names the antibody as mAb13.

Row | Binder | ENTPD2 Biochemical Assay at 1 uM ATP IC50 [1] [nM] | Human ENTPD2 NIH/3T3 Assay % inhibition [2] [%] | Human ENTPD2 NIH/3T3 Assay IC50 [2] [nM] | Cyno ENTPD2 NIH/3T3 Assay % inhibition [3] [%] | Cyno ENTPD2 NIH/3T3 Assay IC50 [3] [nM] | ENTPD2 Functional Assay IC50 (nM), mouse ENTPD2 NIH/3T3 cells [5] [nM] | other results
1 | B1 | 0.27 | 98 | 0.6 | 91 | 1 | – | RKO Assay % inhibition [2]: 96%; RKO Assay IC50 [2]: 0.5 nM
2 | B2 | 77.3 | 30 | > 133 | 5 | > 133 | – | –
3 | B3 | – | – | – | – | – | 2.8 | binding result [4]: no binding; binding result [6]: no binding
4 | B4 | – | – | – | – | – | 5.9 | –
5 | B5 | – | – | – | – | – | 4.6 | –
